From paper PMC8070380 (2021) come the findings set out here.

The target in experiment [1] is T1, A3Bctd-DM (L230K/F308K), residues 187-378 (human, UniProt Q9UH17 187-378, L230K | F308K). Briefly: SPR; association 120 s, dissociation 300 s. Background: In SPR one partner is held on a chip, and binding of the other changes the refractive index at the surface.
The target in experiment [2] is T1, A3Bctd-DM (L230K/F308K), residues …. Briefly: SPR; association 300 s, dissociation 750 s.

T1 sequence (Q9UH17 187-378 L230K/F308K): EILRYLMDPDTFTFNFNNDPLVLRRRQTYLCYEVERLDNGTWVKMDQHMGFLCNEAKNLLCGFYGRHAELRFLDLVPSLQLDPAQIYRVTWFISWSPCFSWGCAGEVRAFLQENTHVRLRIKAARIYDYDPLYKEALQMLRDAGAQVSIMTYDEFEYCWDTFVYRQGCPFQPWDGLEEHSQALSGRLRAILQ

B1: scFv 5G7 (heavy chain Fv followed by light chain Fv, 16-residue His8 linker) (scFv, V domains shown)
VH: EVQLLESGGDLVKPGGSLKLSCAASGFTFSSYGMSWVRQTPDKRLEWVATISSGGSYTYYPDSVKGRFTISRDNAKNTLYLQMSSLKSEDTAMYYCARGGEGYYFDYWGQGTTLTVSS
VL: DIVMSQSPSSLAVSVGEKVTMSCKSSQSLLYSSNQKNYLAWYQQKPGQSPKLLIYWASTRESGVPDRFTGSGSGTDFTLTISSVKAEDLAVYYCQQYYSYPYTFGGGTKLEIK
Broadly, the koff is the first-order rate constant of dissociation. Read a low koff as a long-lived complex. Consider B1, for which the koff was found to be 0.000779 s⁻¹ in experiment [1] and 0.000331 s⁻¹ in experiment [2].
